Test results taken from patent US20060257938A1, “Method of screening for drugs that block ligand binding to a lipid binding protein” (priority 2005, published 2006).

Assays:
Format in all cases: binding
Settings in all cases: response relative to ADIFAB2
[1] = Probe fluorescence ratio response to linolenic acid relative to ADIFAB2
Method in brief: (§1)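 Each fatty acid's response was expressed relative to ADIFAB2, the rI-FABP-L72A probe, as ΔR/ΔRreference. ΔR is the change in the background-corrected two-wavelength intensity ratio R=Fλ1/Fλ2 from its analyte-free baseline R0. Emission was read near about 420-480 nm for unbound and about 495-580 nm for FFA-bound probe.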

[2] = Probe fluorescence ratio response to oleic acid relative to ADIFAB2
Method in brief: as §1

[3] = Probe fluorescence ratio response to arachidonic acid relative to ADIFAB2
Method in brief: as §1

[4] = Probe fluorescence ratio response to palmitic acid relative to ADIFAB2
Method in brief: as §1

[5] = Probe fluorescence ratio response to linoleic acid relative to ADIFAB2
Method in brief: as §1

| Molecule | DR/DR LNA [1] | DR/DR OA [2] | DR/DR AA ([3]; Arachidonic acid) | DR/DR PA [4] | DR/DR LA [5] | DR/DR AA ([3]; arachidonic acid) |
| --- | --- | --- | --- | --- | --- | --- |
| 49C1, 72A (protein, listed as Rattus norvegicus, PEPTIDE (1)...(131) wild-type rat intestinal fatty acid binding protein) AFDGTWKVDRNENYEKFMEKMGINVVKRKLGAHDNLKLTITQEGNKFTCKESSNFRNIDVVFELGVDFAYSAADGTELTGTWTMEGNKLVGKFKRVDNGKELIAVREISGNELIQTYTYEGVEAKRIFKKE | −0.18 | −0.20 | −0.13 | −0.18 | −0.21 |  |
| 102T, 72A (protein, listed as Rattus norvegicus, PEPTIDE (1)...(131) wild-type rat intestinal fatty acid binding protein) AFDGTWKVDRNENYEKFMEKMGINVVKRKLGAHDNLKLTITQEGNKFTVKESSNFRNIDVVFELGVDFAYSAADGTELTGTWTMEGNKLVGKFKRVDNGKETIAVREISGNELIQTYTYEGVEAKRIFKKE | 0.24 | 0.26 |  | 0.12 | 0.26 | 0.21 |
| 49R1, 72A (protein, listed as Rattus norvegicus, PEPTIDE (1)...(131) wild-type rat intestinal fatty acid binding protein) AFDGTWKVDRNENYEKFMEKMGINVVKRKLGAHDNLKLTITQEGNKFTRKESSNFRNIDVVFELGVDFAYSAADGTELTGTWTMEGNKLVGKFKRVDNGKELIAVREISGNELIQTYTYEGVEAKRIFKKE | 1.70 | 1.56 | 1.68 | 0.78 | 1.75 |  |
| 49K1, 72A (protein, listed as Rattus norvegicus, PEPTIDE (1)...(131) wild-type rat intestinal fatty acid binding protein) AFDGTWKVDRNENYEKFMEKMGINVVKRKLGAHDNLKLTITQEGNKFTKKESSNFRNIDVVFELGVDFAYSAADGTELTGTWTMEGNKLVGKFKRVDNGKELIAVREISGNELIQTYTYEGVEAKRIFKKE | 1.68 | 1.51 | 1.64 | 0.80 | 1.71 |  |
| 49Q1, 72A (protein, listed as Rattus norvegicus, PEPTIDE (1)...(131) wild-type rat intestinal fatty acid binding protein) AFDGTWKVDRNENYEKFMEKMGINVVKRKLGAHDNLKLTITQEGNKFTQKESSNFRNIDVVFELGVDFAYSAADGTELTGTWTMEGNKLVGKFKRVDNGKELIAVREISGNELIQTYTYEGVEAKRIFKKE | 1.23 | 1.20 | 0.92 | 0.69 | 1.25 |  |
| 49H1, 72A (protein, listed as Rattus norvegicus, PEPTIDE (1)...(131) wild-type rat intestinal fatty acid binding protein) AFDGTWKVDRNENYEKFMEKMGINVVKRKLGAHDNLKLTITQEGNKFTHKESSNFRNIDVVFELGVDFAYSAADGTELTGTWTMEGNKLVGKFKRVDNGKELIAVREISGNELIQTYTYEGVEAKRIFKKE | 1.54 | 1.39 | 1.47 | 0.75 | 1.58 |  |
| 49G1, 72A (protein, listed as Rattus norvegicus, PEPTIDE (1)...(131) wild-type rat intestinal fatty acid binding protein) AFDGTWKVDRNENYEKFMEKMGINVVKRKLGAHDNLKLTITQEGNKFTGKESSNFRNIDVVFELGVDFAYSAADGTELTGTWTMEGNKLVGKFKRVDNGKELIAVREISGNELIQTYTYEGVEAKRIFKKE | 1.25 | 1.15 | 1.26 | 0.64 | 1.29 |  |
| 49M1, 72A (protein, listed as Rattus norvegicus, PEPTIDE (1)...(131) wild-type rat intestinal fatty acid binding protein) AFDGTWKVDRNENYEKFMEKMGINVVKRKLGAHDNLKLTITQEGNKFTMKESSNFRNIDVVFELGVDFAYSAADGTELTGTWTMEGNKLVGKFKRVDNGKELIAVREISGNELIQTYTYEGVEAKRIFKKE | 1.37 | 1.30 | 1.36 | 0.94 | 1.37 |  |
| 49D1, 72A (protein, listed as Rattus norvegicus, PEPTIDE (1)...(131) wild-type rat intestinal fatty acid binding protein) AFDGTWKVDRNENYEKFMEKMGINVVKRKLGAHDNLKLTITQEGNKFTDKESSNFRNIDVVFELGVDFAYSAADGTELTGTWTMEGNKLVGKFKRVDNGKELIAVREISGNELIQTYTYEGVEAKRIFKKE | 0.30 | 0.32 | 0.31 | 0.16 | 0.32 |  |
| 49N1, 72A (protein, listed as Rattus norvegicus, PEPTIDE (1)...(131) wild-type rat intestinal fatty acid binding protein) AFDGTWKVDRNENYEKFMEKMGINVVKRKLGAHDNLKLTITQEGNKFTNKESSNFRNIDVVFELGVDFAYSAADGTELTGTWTMEGNKLVGKFKRVDNGKELIAVREISGNELIQTYTYEGVEAKRIFKKE | 1.18 | 1.11 | 1.26 | 0.74 | 1.10 |  |
| 49Q, 72A (protein, listed as Rattus norvegicus, PEPTIDE (1)...(131) wild-type rat intestinal fatty acid binding protein) AFDGTWKVDRNENYEKFMEKMGINVVKRKLGAHDNLKLTITQEGNKFTQKESSNFRNIDVVFELGVDFAYSAADGTELTGTWTMEGNKLVGKFKRVDNGKELIAVREISGNELIQTYTYEGVEAKRIFKKE | 0.55 | 0.56 | 0.62 | 0.43 | 0.58 |  |
| 102V, 72A (protein, listed as Rattus norvegicus, PEPTIDE (1)...(131) wild-type rat intestinal fatty acid binding protein) AFDGTWKVDRNENYEKFMEKMGINVVKRKLGAHDNLKLTITQEGNKFTVKESSNFRNIDVVFELGVDFAYSAADGTELTGTWTMEGNKLVGKFKRVDNGKEVIAVREISGNELIQTYTYEGVEAKRIFKKE | 0.51 | 0.57 |  | 0.35 | 0.67 | 0.46 |
| 49L1, 72A (protein, listed as Rattus norvegicus, PEPTIDE (1)...(131) wild-type rat intestinal fatty acid binding protein) AFDGTWKVDRNENYEKFMEKMGINVVKRKLGAHDNLKLTITQEGNKFTLKESSNFRNIDVVFELGVDFAYSAADGTELTGTWTMEGNKLVGKFKRVDNGKELIAVREISGNELIQTYTYEGVEAKRIFKKE | 1.77 | 1.67 | 1.76 | 1.00 | 1.81 |  |
| 49F1, 72A (protein, listed as Rattus norvegicus, PEPTIDE (1)...(131) wild-type rat intestinal fatty acid binding protein) AFDGTWKVDRNENYEKFMEKMGINVVKRKLGAHDNLKLTITQEGNKFTFKESSNFRNIDVVFELGVDFAYSAADGTELTGTWTMEGNKLVGKFKRVDNGKELIAVREISGNELIQTYTYEGVEAKRIFKKE | 1.18 | 1.14 | 1.18 | 0.75 | 1.14 |  |
| 49S1, 72A (protein, listed as Rattus norvegicus, PEPTIDE (1)...(131) wild-type rat intestinal fatty acid binding protein) AFDGTWKVDRNENYEKFMEKMGINVVKRKLGAHDNLKLTITQEGNKFTSKESSNFRNIDVVFELGVDFAYSAADGTELTGTWTMEGNKLVGKFKRVDNGKELIAVREISGNELIQTYTYEGVEAKRIFKKE | 1.34 | 1.18 | 1.27 | 0.66 | 1.29 |  |
| 49P1, 72A (protein, listed as Rattus norvegicus, PEPTIDE (1)...(131) wild-type rat intestinal fatty acid binding protein) AFDGTWKVDRNENYEKFMEKMGINVVKRKLGAHDNLKLTITQEGNKFTPKESSNFRNIDVVFELGVDFAYSAADGTELTGTWTMEGNKLVGKFKRVDNGKELIAVREISGNELIQTYTYEGVEAKRIFKKE | 1.53 | 1.40 | 1.57 | 0.76 | 1.59 |  |
| 49I1, 72A (protein, listed as Rattus norvegicus, PEPTIDE (1)...(131) wild-type rat intestinal fatty acid binding protein) AFDGTWKVDRNENYEKFMEKMGINVVKRKLGAHDNLKLTITQEGNKFTIKESSNFRNIDVVFELGVDFAYSAADGTELTGTWTMEGNKLVGKFKRVDNGKELIAVREISGNELIQTYTYEGVEAKRIFKKE | 1.82 | 1.80 | 1.80 | 1.16 | 1.84 |  |
